Experimental data from the supplement of paper PMC10724198.
± gives the standard deviation of the averaged measurements.

System: Saccharomyces cerevisiae
Experiment: protein stability index of tFT-peptide fusion (C-terminal peptide) (PSI (0-1 scale)); higher = more stable (slower turnover)
Conditions: temperature: 30 C
Description: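 MPS profiling in S. cerevisiae of the yeast C-terminome library: the last 12 aa of each annotated ORF are fused to the C-terminus of a sfGFP-mCherry timer, after a GGGS linker. Cells are FACS-sorted into 8 mCherry/sfGFP bins and deep-sequenced. PSI runs from 0 (unstable) to 1 (stable); wild type and das1Δ backgrounds, two technical replicates each.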

[1] = genetic background: das1 deletion

Row | Sequence | protein stability index [1] | protein stability index (genetic background: wild type)
1 | DLSTRIYSLAYE [ELP2 C-terminal 12 aa] | 0.71 ± 0.051 | 0.665 ± 0.011
2 | CTIQKMREKANT [YNL028W C-terminal 12 aa] | 0.677 ± 0.027 | 0.723 ± 0.062
3 | QTNSKPAAVSTN [PLN1 C-terminal 12 aa] | 0.6745 ± 0.003 | 0.668 ± 0.02
4 | SSSSTSSSATKN [TPS1 C-terminal 12 aa] | 0.703 ± 0.017 | 0.685 ± 0.047
5 | FPVKSSPNAHTA [YLR334C C-terminal 12 aa] | 0.707 ± 0.018 | 0.687 ± 0.026
6 | ELRERLLRPSKK [YPL245W C-terminal 12 aa] | 0.7246 ± 0.0023 | 0.771 ± 0.032
7 | TVNLIKSQLVRG [COQ9 C-terminal 12 aa] | 0.6064 ± 0.0011 | 0.635 ± 0.047
8 | DTTFTGCTKKIL [YGL102C C-terminal 12 aa] | 0.698 ± 0.023 | 0.66 ± 0.019
9 | ELAYKSFYALLD [VPS28 C-terminal 12 aa] | 0.691 ± 0.019 | 0.702 ± 0.045
10 | CIVNLASDTISL [YOL150C C-terminal 12 aa] | 0.709 ± 0.0077 | 0.667 ± 0.01
11 | IEIVKDAKRKGY [MRP21 C-terminal 12 aa] | 0.70154 ± 7.3e-05 | 0.674 ± 0.017
12 | LELQSRIESYLF [CNN1 C-terminal 12 aa] | 0.703 ± 0.0072 | 0.715 ± 0.047
13 | SCFSYSVGSKFT [YPR170W-A C-terminal 12 aa] | 0.7068 ± 0.0063 | 0.703 ± 0.014
14 | KITEKWTHKDFK [NOP53 C-terminal 12 aa] | 0.688 ± 0.027 | 0.719 ± 0.058
15 | KTITIGNLPNSI [UGA2 C-terminal 12 aa] | 0.7224 ± 0.0026 | 0.715 ± 0.026
16 | KKRISEKQHFIE [AMF1 C-terminal 12 aa] | 0.689 ± 0.038 | 0.633 ± 0.016
17 | SWSGDNEAHRWT [NPT1 C-terminal 12 aa] | 0.716 ± 0.023 | 0.686 ± 0.016
18 | AVDYILRLFGFL [COQ2 C-terminal 12 aa] | 0.72 ± 0.013 | 0.537 ± 0.019
19 | IPKIPKIVNGFK [DCS1 C-terminal 12 aa] | 0.694 ± 0.012 | 0.6501 ± 0.0018
20 | FPWSHGTCIRGA [YOR376W C-terminal 12 aa] | 0.696 ± 0.013 | 0.688 ± 0.01
21 | DFVDMYQTEHSG [MTF1 C-terminal 12 aa] | 0.712 ± 0.0088 | 0.7301 ± 0.0034

Row | Sequence | protein stability index [1] | protein stability index (genetic background: wild type)
22 | TKKSSSHHRTGK [DIG1 C-terminal 12 aa] | 0.697 ± 0.014 | 0.688 ± 0.016
23 | SFPIASSTTQTS [NST1 C-terminal 12 aa] | 0.696 ± 0.021 | 0.689 ± 0.0087
24 | MGISSNSFQGVN [KDX1 C-terminal 12 aa] | 0.70379 ± 8.7e-05 | 0.6626 ± 0.0032
25 | LGNNAVGLAKAI [PEP4 C-terminal 12 aa] | 0.7 ± 0.0012 | 0.678 ± 0.055
26 | RKFQPPPGFKRK [SMB1 C-terminal 12 aa] | 0.724 ± 0.017 | 0.74 ± 0.047
27 | ILPIHQEDPANR [MEP1 C-terminal 12 aa] | 0.701 ± 0.011 | 0.686 ± 0.042
28 | DGSGKYFLKHDS [KTR2 C-terminal 12 aa] | 0.706 ± 0.0039 | 0.708 ± 0.04
29 | TLQSEINISVKH [ENA5 C-terminal 12 aa] | 0.671 ± 0.0081 | 0.6909 ± 0.0042
30 | IAEEIISMFAEN [YNR064C C-terminal 12 aa] | 0.692 ± 0.031 | 0.723 ± 0.016
31 | ENDDHLYIFGRN [TIM18 C-terminal 12 aa] | 0.743 ± 0.033 | 0.731 ± 0.045
32 | ATTSLNNPYGFR [TOS7 C-terminal 12 aa] | 0.675 ± 0.0069 | 0.663 ± 0.03
33 | HGHHNSSTSGHK [PBP1 C-terminal 12 aa] | 0.694 ± 0.015 | 0.714 ± 0.0077
34 | PYNFIQLLHQGL [HOF1 C-terminal 12 aa] | 0.725 ± 0.011 | 0.709 ± 0.012
35 | KWCASYSAGNRR [YLR280C C-terminal 12 aa] | 0.709 ± 0.017 | 0.6752 ± 0.0061
36 | KKAPYFLPAPHT [FMO1 C-terminal 12 aa] | 0.7 ± 0.012 | 0.715 ± 0.0093
37 | YGTSYVFAISFK [YNL266W C-terminal 12 aa] | 0.602 ± 0.036 | 0.606 ± 0.0098
38 | QKENQYHPRRNQ [YML009W-B C-terminal 12 aa] | 0.7123 ± 0.0032 | 0.691 ± 0.039
39 | SELKGFVDEVDL [TFC1 C-terminal 12 aa] | 0.7183 ± 0.0033 | 0.721 ± 0.037
40 | HFNSSSPQKVEF [LSM4 C-terminal 12 aa] | 0.721 ± 0.012 | 0.738 ± 0.03
41 | CIAKKVKTYWNK [YIL024C C-terminal 12 aa] | 0.68219 ± 0.00014 | 0.676 ± 0.023
42 | SHPTEQTEVSSQ [MHR1 C-terminal 12 aa] | 0.697 ± 0.0079 | 0.68 ± 0.02

Row | Sequence | protein stability index [1] | protein stability index (genetic background: wild type)
43 | ADGNPLQALPQL [TOM40 C-terminal 12 aa] | 0.7077 ± 0.0065 | 0.666 ± 0.024
44 | ITTKRSLCSSKD [PEX25 C-terminal 12 aa] | 0.673 ± 0.015 | 0.695 ± 0.02
45 | LYVTVFNRSDEA [AVT7 C-terminal 12 aa] | 0.6773 ± 0.0036 | 0.6811 ± 0.0037
46 | RRCDDMLYYIQN [POP4 C-terminal 12 aa] | 0.716 ± 0.021 | 0.662 ± 0.011
47 | KPSAKPVDLSKL [DAL7 C-terminal 12 aa] | 0.759 ± 0.011 | 0.846 ± 0.069
48 | LKTPQEYESKAK [BOL1 C-terminal 12 aa] | 0.702 ± 0.02 | 0.753 ± 0.069
49 | DDDEDGYNPYTL [PAP2 C-terminal 12 aa] | 0.7215 ± 0.0049 | 0.697 ± 0.0073
50 | QSLLDSLAKLQK [NAB3 C-terminal 12 aa] | 0.667 ± 0.009 | 0.678 ± 0.022
51 | FTNALKNMYFSA [YJR037W C-terminal 12 aa] | 0.709 ± 0.0094 | 0.585 ± 0.019
52 | CFLIGSSDTTSL [OPI6 C-terminal 12 aa] | 0.7045 ± 0.0014 | 0.691 ± 0.028
53 | IAVNYGQKDLIE [BRR1 C-terminal 12 aa] | 0.697 ± 0.033 | 0.669 ± 0.014
54 | EGVRNRRKALKK [ARO3 C-terminal 12 aa] | 0.684 ± 0.027 | 0.669 ± 0.022
55 | VKDFYKRLETLK [RRM3 C-terminal 12 aa] | 0.6914 ± 0.0038 | 0.7042 ± 0.0011
56 | RIYDFFQSQNWM [ADA2 C-terminal 12 aa] | 0.7311 ± 0.0031 | 0.7058 ± 0.0047
57 | VKPSQDNVDSKD [OPI1 C-terminal 12 aa] | 0.687 ± 0.0096 | 0.668 ± 0.022
58 | GLEHSDPFSTFY [DBF2 C-terminal 12 aa] | 0.71206 ± 0.0003 | 0.712 ± 0.025
59 | PIQDFIFNLVGE [VTC3 C-terminal 12 aa] | 0.687 ± 0.0086 | 0.6981 ± 0.0027
60 | EKQYVKILDDTH [CSF1 C-terminal 12 aa] | 0.716 ± 0.011 | 0.695 ± 0.037
61 | STFSKPFSTISK [VHR2 C-terminal 12 aa] | 0.6906 ± 0.0026 | 0.682 ± 0.059
62 | MVNEWIHGGFSL [PRC1 C-terminal 12 aa] | 0.73 ± 0.025 | 0.702 ± 0.019
63 | LSKKDYSIDSIE [TPO3 C-terminal 12 aa] | 0.726 ± 0.011 | 0.6981 ± 0.0023

Row | Sequence | protein stability index [1] | protein stability index (genetic background: wild type)
64 | SFFLRNFFPSLF [YDL159W-A C-terminal 12 aa] | 0.756 ± 0.026 | 0.246 ± 0.022
65 | VEDQSIEVKKEK [YPC1 C-terminal 12 aa] | 0.684 ± 0.035 | 0.7136 ± 0.007
66 | STHGPGIVIDFA [MRPL1 C-terminal 12 aa] | 0.724 ± 0.011 | 0.761 ± 0.089
67 | LELCKLASNNLE [RRI2 C-terminal 12 aa] | 0.6896 ± 0.0022 | 0.703 ± 0.04
68 | YSAVGNFFSRKK [YGR035W-A C-terminal 12 aa] | 0.718 ± 0.019 | 0.6696 ± 0.002
69 | NQIIQARLKDLE [DNF3 C-terminal 12 aa] | 0.686 ± 0.021 | 0.6964 ± 0.0035
70 | WYQIVVQMIYIC [PSY1 C-terminal 12 aa] | 0.186 ± 0.0065 | 0.0907 ± 0.006
71 | LIEKNFLSSHAG [YJR071W C-terminal 12 aa] | 0.7159 ± 0.0042 | 0.708 ± 0.022
72 | LPYRMLIRMYPV [YEL014C C-terminal 12 aa] | 0.5232 ± 0.0025 | 0.5345 ± 0.0047
73 | EENENDCDSEIQ [RTS1 C-terminal 12 aa] | 0.7103 ± 0.0013 | 0.696 ± 0.0094
74 | VAQNPVLAAVIA [KAP123 C-terminal 12 aa] | 0.455 ± 0.013 | 0.466 ± 0.015
75 | VTGPHDRWYVVG [ATG14 C-terminal 12 aa] | 0.76 ± 0.019 | 0.659 ± 0.024
76 | QSRYDNSRANRR [RAT1 C-terminal 12 aa] | 0.7257 ± 0.0043 | 0.731 ± 0.099
77 | STLAGEWRLIIA [YBR284W C-terminal 12 aa] | 0.498 ± 0.0089 | 0.518 ± 0.019
78 | KIVIPDKFIQHI [HRD1 C-terminal 12 aa] | 0.673 ± 0.025 | 0.706 ± 0.028
79 | LVIKRRGFEINT [PET122 C-terminal 12 aa] | 0.66 ± 0.015 | 0.721 ± 0.043
80 | SLEKELISRGYR [CDC73 C-terminal 12 aa] | 0.724 ± 0.0099 | 0.685 ± 0.02
81 | SEEKRRLAPADI [YOL019W-A C-terminal 12 aa] | 0.68 ± 0.02 | 0.691 ± 0.024
82 | LTWSLAYSGAFS [ACF2 C-terminal 12 aa] | 0.7217 ± 0.0012 | 0.686 ± 0.013
